# Article PMC11161584
# Biological target: PTRAMP-CSS heterodimer (Plasmodium thrombospondin-related apical merozoite protein with small cystei (P. falciparum (3D7 clone)))
# Assay: SPR
substance,measurement,value
"RH5-interacting protein (RIPR), full-length soluble recombinant protein (from UniProt O97302 20-1086) (natural protein)",Kd,4.5 µM
